The target in assay [1] is T1, HLA-DR (DRA*0101/DRB1*0401) on PRIESS cells (human, UniProt P01903 26-254; P01911 30-266).
T1 MHC II alpha: not shown
T1 MHC II beta: not shown
In words: cell-based or functional assay.

In assay [2] the target is T2, human MHC class II DR protein (DRA*0101/DRB1*0401), purified from PRIESS cells (human, UniProt P01903 26-254; P01911 30-266, limits assumed).
T2 construct: mature; also called HLA-DR protein; MHCII
T2 MHC II alpha: not shown
T2 MHC II beta: not shown
Briefly: SPR (BIAcore), MHCII on CM5 chip.

The target in assay [3] is T2, human MHC class II DR protein …. In words: SPR (BIAcore), chip density 4000 RU MHCII.
Assay [4] addresses chimeric 0401-IE class II molecule on cells of transgenic mice (human/murine chimera). Briefly: cell-based or functional assay.
Assay [5] concerns the target T2, human MHC class II DR protein …. Briefly: SPR (BIAcore), MHCII on CM5 chip.
Assay [6] has the same target. In words: ELISA, coated antigen, Fab 100 ng/well, read at 370 nm. On the procedure: After washing in PBS the anti-human IgG F(ab')_2-peroxidase-conjugate at a 1:10,000 dilution in TBS (supplemented with 5% w/v non-fat drymilk/0.05% v/v Tween 20) was added to each well for 1 h. Final washes were carried out in PBS followed the addition the substrate POD (Roche).

B1: L243 (antibody, V domains shown)
VH: QIQLVQSGPELKKPGETVKISCKASGFTFTNYGMNWVKQAPGKGLKWMGWINTYTREPTYADDFKGRFAFSLETSASTAYLQINNLKNEDTAKYFCARDITAVVPTGFDYWGQGTTLTVSS
VL: DIQMTQSPASLSVSVGETVTITCRASENIYSNLAWYRQKQGKSPQLLVFAASNLADGVPSRFSGSGSGTQYSLKINSLQSEDFGDYYCQHFWTTPWAFGGGTNLEIK
As for B1, the “EC50 of cell killing, mIgG” value in assay [1] is 47 nM.

B2: MS-GPC-8-1 Fab (Fab, V domains shown)
VH: QVQLKESGPALVKPTQTLTLTCTFSGFSLSTSGVGVGWIRQPPGKALEWLALIDWDDDKYYSTSLKTRLTISKDTSKNQVVLTMTNMDPVDTATYYCARSPRYRGAFDYWGQGTLVTVSS
VL: DIVLTQPPSVSGAPGQRVTISCSGSSSNIGSNYVSWYQQLPGTAPKLLIYDNNQRPSGVPDRFSGSKSGTSASLAITGLQSEDEADYYCQSYDFSHYVFGGGTKLTVLG
notes: Fab: VH-CH1 with FLAG tag and STREP tag II, VL-CL; VH residue 1 is Q in Fab
For B2, in assay [2], the Kd turned out to be 108 nM, the koff was 0.0209 s⁻¹ and the on-rate constant (kon) is 193000 M⁻¹ s⁻¹. In assay [3], this molecule showed a Kd of 108 nM, a koff of 0.0209 s⁻¹ and a kon of 193000 M⁻¹ s⁻¹.

B3: MS-GPC-8-6-2 IgG (antibody, V domains shown)
VH: QVQLKESGPALVKPTQTLTLTCTFSGFSLSTSGVGVGWIRQPPGKALEWLALIDWDDDKYYSTSLKTRLTISKDTSKNQVVLTMTNMDPVDTATYYCARSPRYRGAFDYWGQGTLVTVSS
VL: DIVLTQPPSVSGAPGQRVTISCSGSESNIGSNYVHWYQQLPGTAPKLLIYDNNQRPSGVPDRFSGSKSGTSASLAITGLQSEDEADYYCQSYDYDHYVFGGGTKLTVLG
As to B3, in assay [4], the “IC50 of inhibition of IL-2 secretion from T-Hyb 1 cells” value (“IC50 of inhibition of IL-2 secretion” for short) is 3.6 nM and the “Maximum inhibition(%) of IL-2 secretion” value was found to be 100%.

B4: MS-GPC-8-6 IgG (antibody, V domains shown)
VH: QVQLKESGPALVKPTQTLTLTCTFSGFSLSTSGVGVGWIRQPPGKALEWLALIDWDDDKYYSTSLKTRLTISKDTSKNQVVLTMTNMDPVDTATYYCARSPRYRGAFDYWGQGTLVTVSS
VL: DIVLTQPPSVSGAPGQRVTISCSGSSSNIGSNYVSWYQQLPGTAPKLLIYDNNQRPSGVPDRFSGSKSGTSASLAITGLQSEDEADYYCQSYDYDHYVFGGGTKLTVLG
For B4, in assay [4], the “IC50 of inhibition of IL-2 secretion” value was determined as 6.7 nM and the “Maximum inhibition(%) of IL-2 secretion” value was 100%.

B5: MS-GPC-8-10 Fab (Fab, V domains shown)
VH: QVQLKESGPALVKPTQTLTLTCTFSGFSLSTSGVGVGWIRQPPGKALEWLALIDWDDDKYYSTSLKTRLTISKDTSKNQVVLTMTNMDPVDTATYYCARSPRYRGAFDYWGQGTLVTVSS
VL: DIVLTQPPSVSGAPGQRVTISCSGSSSNIGSNYVSWYQQLPGTAPKLLIYDNNQRPSGVPDRFSGSKSGTSASLAITGLQSEDEADYYCQSYDLIRHVFGGGTKLTVLG
notes: as for B2
As to B5, the koff in assay [2] amounted to 0.007 s⁻¹.

B6: MS-GPC-8-27 Fab (Fab, V domains shown)
VH: QVQLKESGPALVKPTQTLTLTCTFSGFSLSTSGVGVGWIRQPPGKALEWLALIDWDDDKYYSTSLKTRLTISKDTSKNQVVLTMTNMDPVDTATYYCARSPRYRGAFDYWGQGTLVTVSS
VL: DIVLTQPPSVSGAPGQRVTISCSGSSSNIGSNYVSWYQQLPGTAPKLLIYDNNQRPSGVPDRFSGSKSGTSASLAITGLQSEDEADYYCQSYDMNVHVFGGGTKLTVLG
notes: as for B2
B6: the koff in assay [2] was found to be 0.0066 s⁻¹.

B7: MS-GPC-8-27-7 Fab (Fab, V domains shown)
VH: QVQLKESGPALVKPTQTLTLTCTFSGFSLSTSGVGVGWIRQPPGKALEWLALIDWDDDKYYSTSLKTRLTISKDTSKNQVVLTMTNMDPVDTATYYCARSPRYRGAFDYWGQGTLVTVSS
VL: DIVLTQPPSVSGAPGQRVTISCSGSESNIGNNYVGWYQQLPGTAPKLLIYDNNQRPSGVPDRFSGSKSGTSASLAITGLQSEDEADYYCQSYDMNVHVFGGGTKLTVLG
notes: as for B2
Regarding B7, in assay [2], binding was put at a Kd of 3.3 nM, the koff is 0.00057 s⁻¹ and the kon turned out to be 174000 M⁻¹ s⁻¹. Besides, in assay [5], the Kd amounted to 3.3 nM, the koff came out at 0.00057 s⁻¹ and the on-rate constant (kon) worked out at 170000 M⁻¹ s⁻¹. Moreover, the ELISA signal in assay [6] is 1.55. Further, in assay [4], the “IC50 of inhibition of IL-2 secretion” value was 5.9 nM (half the concentration of the Fab) and the “Maximum inhibition(%) of IL-2 secretion” value worked out at 100%.

B8: MS-GPC-8-6-2 Fab (Fab, V domains shown)
VH: QVQLKESGPALVKPTQTLTLTCTFSGFSLSTSGVGVGWIRQPPGKALEWLALIDWDDDKYYSTSLKTRLTISKDTSKNQVVLTMTNMDPVDTATYYCARSPRYRGAFDYWGQGTLVTVSS
VL: DIVLTQPPSVSGAPGQRVTISCSGSESNIGSNYVHWYQQLPGTAPKLLIYDNNQRPSGVPDRFSGSKSGTSASLAITGLQSEDEADYYCQSYDYDHYVFGGGTKLTVLG
notes: as for B2
For the molecule B8, in assay [1], the “EC50 of cell killing, cross-linked Fab, bivalent agent” value amounted to 8 nM. In assay [2], this molecule came in with a Kd of 7.61 nM, a koff of 0.00094 s⁻¹ and an on-rate (kon) of 123000 M⁻¹ s⁻¹. Also, in assay [5], binding was characterised by a dissociation constant (Kd) of 7.6 nM, the koff was determined as 0.00094 s⁻¹ and the kon was found to be 120000 M⁻¹ s⁻¹. Besides, in assay [4], the “IC50 of inhibition of IL-2 secretion” value was 4.7 nM (half the concentration of the Fab) and the “Maximum inhibition(%) of IL-2 secretion” value turned out to be 100%.

B9: MS-GPC-8-6-45 Fab (Fab, V domains shown)
VH: QVQLKESGPALVKPTQTLTLTCTFSGFSLSTSGVGVGWIRQPPGKALEWLALIDWDDDKYYSTSLKTRLTISKDTSKNQVVLTMTNMDPVDTATYYCARSPRYRGAFDYWGQGTLVTVSS
VL: DIVLTQPPSVSGAPGQRVTISCSGSEPNIGSNYVFWYQQLPGTAPKLLIYDNNQRPSGVPDRFSGSKSGTSASLAITGLQSEDEADYYCQSYDYDHYVFGGGTKLTVLG
notes: as for B2
In assay [2], B9 came in with a Kd of 8.63 nM, a koff of 0.00103 s⁻¹ and a kon of 120000 M⁻¹ s⁻¹. Also, in assay [5], the Kd stood at 8.6 nM, the off-rate constant (koff) stood at 0.00103 s⁻¹ and the on-rate (kon) was determined as 120000 M⁻¹ s⁻¹.

B10: MS-GPC-8-9 Fab (Fab, V domains shown)
VH: QVQLKESGPALVKPTQTLTLTCTFSGFSLSTSGVGVGWIRQPPGKALEWLALIDWDDDKYYSTSLKTRLTISKDTSKNQVVLTMTNMDPVDTATYYCARSPRYRGAFDYWGQGTLVTVSS
VL: DIVLTQPPSVSGAPGQRVTISCSGSSSNIGSNYVSWYQQLPGTAPKLLIYDNNQRPSGVPDRFSGSKSGTSASLAITGLQSEDEADYYCQSYDIQLHVFGGGTKLTVLG
notes: as for B2
In assay [2], B10 returned a Kd of 90.1 nM, an off-rate constant (koff) of 0.0166 s⁻¹ and a kon of 185000 M⁻¹ s⁻¹. In assay [3], this molecule registered a Kd of 90.1 nM, a koff of 0.0166 s⁻¹ and a kon of 185000 M⁻¹ s⁻¹.

B11: MS-GPC-8-6-19 Fab (Fab, V domains shown)
VH: QVQLKESGPALVKPTQTLTLTCTFSGFSLSTSGVGVGWIRQPPGKALEWLALIDWDDDKYYSTSLKTRLTISKDTSKNQVVLTMTNMDPVDTATYYCARSPRYRGAFDYWGQGTLVTVSS
VL: DIVLTQPPSVSGAPGQRVTISCSGSESNIGSNYVAWYQQLPGTAPKLLIYDNNQRPSGVPDRFSGSKSGTSASLAITGLQSEDEADYYCQSYDYDHYVFGGGTKLTVLG
notes: as for B2
Consider B11, for which, in assay [2], the Kd came to 8.74 nM, the koff came to 0.00096 s⁻¹ and the kon was determined as 110000 M⁻¹ s⁻¹. Also, in assay [5], the Kd worked out at 9 nM, the koff is 0.001 s⁻¹ and the kon stood at 110000 M⁻¹ s⁻¹. In assay [4], the “IC50 of inhibition of IL-2 secretion” value is 5.3 nM (half the concentration of the Fab) and the “Maximum inhibition(%) of IL-2 secretion” value came out at 100%.

B12: MS-GPC-8-6-13 Fab (Fab, V domains shown)
VH: QVQLKESGPALVKPTQTLTLTCTFSGFSLSTSGVGVGWIRQPPGKALEWLALIDWDDDKYYSTSLKTRLTISKDTSKNQVVLTMTNMDPVDTATYYCARSPRYRGAFDYWGQGTLVTVSS
VL: DIVLTQPPSVSGAPGQRVTISCSGSESNIGANYVTWYQQLPGTAPKLLIYDNNQRPSGVPDRFSGSKSGTSASLAITGLQSEDEADYYCQSYDYDHYVFGGGTKLTVLG
notes: Fab: VH-CH1 with FLAG tag and STREP tag II, VL-CL; VH residue 1 is Q in Fab; also called 305D3
Turning to B12, in assay [5], the Kd amounted to 3 nM, the koff was 0.00055 s⁻¹ and the kon amounted to 190000 M⁻¹ s⁻¹. Further, the ELISA signal in assay [6] was determined as 1.47. Moreover, in assay [4], the “IC50 of inhibition of IL-2 secretion” value is 2.1 nM (half the concentration of the Fab) and the “Maximum inhibition(%) of IL-2 secretion” value was 100%.

B13: MS-GPC-8-18 Fab (Fab, V domains shown)
VH: QVQLKESGPALVKPTQTLTLTCTFSGFSLSTSGVGVGWIRQPPGKALEWLALIDWDDDKYYSTSLKTRLTISKDTSKNQVVLTMTNMDPVDTATYYCARSPRYRGAFDYWGQGTLVTVSS
VL: DIVLTQPPSVSGAPGQRVTISCSGSSSNIGSNYVSWYQQLPGTAPKLLIYDNNQRPSGVPDRFSGSKSGTSASLAITGLQSEDEADYYCQSYDFSIYVFGGGTKLTVLG
notes: as for B2
In assay [2], B13 came in with a Kd of 78.3 nM, an off-rate (koff) of 0.0083 s⁻¹ and a kon of 106000 M⁻¹ s⁻¹. In assay [3], this molecule came in with a Kd of 78.3 nM, a koff of 0.0083 s⁻¹ and a kon of 106000 M⁻¹ s⁻¹.

These data come from US7521047 (GPC BIOTECH, dated 2009).
